Self-cleavage data for 32 variants are collected here from the RNAGym collection of RNA variant scans (doi:10.7554/elife.80360).

B1: HDV Ribozyme (parent)
chain: GGCCGGCAUGGUCCCAGCCUCCUCGCUGGCGCCGGCUGGGCAACAUUCCGAGGGGACCGUCCCCUCGGUAAUGGCGAAUGGGACCCA

The series covers variants of B1. Put plainly: self-cleavage, relative activity (ratio to wild type); higher = more cleavage; co-transcriptional.
For GGCGGGCAUGGUCCCAGCCUCCUCGCUGGCGUCGGCUGGGCAACAUUCCGAGGGGACCGUCCCCUCGGUAAUGGCGAAUGGGACCCA [C4G C32U], the self-cleavage is 0.086.
On to GGCCGGCAUGGUCCCAGCGUCCUCGCGGGCGCCGGCUGGGCAACAUUCCGAGGGGACCGUCCCCUCGGUAAUGGCGAAUGGGACCCA [C19G U27G], for which the self-cleavage came out at 0.
For GGCCGGCAUGGUCCCAGCCUCCUCGCUGUCGCCGGCUGGGCGACAUUCCGAGGGGACCGUCCCCUCGGUAAUGGCGAAUGGGACCCA [G29U A42G], the self-cleavage is 0.148.
With GGCCGGCAUGGUCACAGCCUCCUCGCUGGCGCCGGCUGGGCAACAUUCCGAGGGGACCGUCCCCUCGGUAAUGCCGAAUGGGACCCA [C14A G74C], the self-cleavage came out at 0.185.
Regarding GGCCUGCAUGGUCCCAGCCUCCUCGCUGGCGCCGGCUUGGCAACAUUCCGAGGGGACCGUCCCCUCGGUAAUGGCGAAUGGGACCCA [G5U G38U], the self-cleavage came out at 0.453.
As for GGCCGGCAUGGUCCCAGCCUCCUCGCUGUCGCCGGCUGGGCAACAUUCCGAGGGGACCGUCCCCUCGGUAAUGGCGAGUGGGACCCA [G29U A78G], the self-cleavage was found to be 0.0378.
With GGCCGGCACGGUCCCAGCCUCCUCGCUGGCGCCGGCUGGGCAACAUUCCGAGGGGACCGUCCACUCGGUAAUGGCGAAUGGGACCCA [U9C C63A], the self-cleavage amounted to 1.14.
In the case of GGCCGGCAUGGUCCCAGCCUCCUCGCUGACGCCGGCUGGGCAACAUUCCGAGGGGACCGUCCCCUCGGUAAUGGCGAAUGAGACCCA [G29A G81A] it was 0.138; in that of GGCCGGCAUCGUCCAAGCCUCCUCGCUGGCGCCGGCUGGGCAACAUUCCGAGGGGACCGUCCCCUCGGUAAUGGCGAAUGGGACCCA [G10C C15A], 0.237; in that of GGCCGGCAUGGUCCCAGCCUCCUCGCUGGCGUCGGCUGGGCAACAUUCCGAGGGGACCGUCCCCUCGGUAAUGGCGAAUGGGGCCCA [C32U A83G], 0.501.
As to GGCCGGCAUGGUCCCAGCCUCCUCGCUGGCGCCGGCUGGGCAACAUUCCGAGGGGAGCGUCCCCUCGGUAAUUGCGAAUGGGACCCA [C57G G73U], the self-cleavage was 0.464.
For the variant GGCCGGCAUGGUCCCAGCCUCCUCGCUGGCGCCGGCUUGGCAACAUUCCGAGGGGACCGUCCCCCCGGUAAUGGCGAAUGGGACCCA [G38U U65C], the self-cleavage was 0.415.
As to GGCCGGCAUGGUCCCAGCCUCCUCGCUGGCUCCGGCUGGGCAACAUUCCGAGGGGAUCGUCCCCUCGGUAAUGGCGAAUGGGACCCA [G31U C57U], the self-cleavage is 0.383.
As for GGCCGGCAUGGUCCCAGCCUCCUCGCUGGAGCCGGCUGGGCAACAUUCCGAGGGGACCGUCCCCUCGGUAAAGGCGAAUGGGACCCA [C30A U72A], the figure is 0.123; as for GGCCGGCAUGGUCCCAGCCUCCUCGCUGGCGCCGGCUGGGGAACAUUCCGAGGGGACCGUCCCCUCGGCAAUGGCGAAUGGGACCCA [C41G U69C], 0.772.
For the variant GGCCGGCAUGGUCCCAGCCUCCACGCUGGCGCCGGCUGGGCUACAUUCCGAGGGGACCGUCCCCUCGGUAAUGGCGAAUGGGACCCA [U23A A42U], the self-cleavage was found to be 0.57.
For GCCCGGCAUGGUCCCAGCCUCCUCGCUGGCGCCGGCUGGGCAACAUUCCGAGGGGACCGUGCCCUCGGUAAUGGCGAAUGGGACCCA [G2C C61G], the self-cleavage is 0.0647.
In the case of GGCCGGCAUGGUCACAGCCUCCUCGCUGGCGCCGGCUGGGCAACAUUCAGAGGGGACCGUCCCCUCGGUAAUGGCGAAUGGGACCCA [C14A C49A] it was 0.782; in that of GGCCGGCAUGGUCCCUGCCUCCUCGCUGGCGCCGGCUGGGCAACAUUCCGAGGGGACCGUCCCCUCGGUAAUGGCGACUGGGACCCA [A16U A78C], 0.156.
For the variant GGCCGGCAUGGUCCCAGCCUCCUCGCUGGCGCCGGCUGUGCAACAUUCCGAGGGGACCGUCCCCUCGGUAAUGGCGAAUGCGACCCA [G39U G81C], the self-cleavage amounted to 0.119.
In the case of GGCCGGCAUGGUCCCAGCCUCCUCGCUGGCGCCAGCUGGGCAACAUUCCGAGGGGACCGUCCCCUCGGUAAUGGCGAAUGGUACCCA [G34A G82U], the self-cleavage was found to be 0.129.
Take GGCCGGCAUGGUCCCAGCCUCCUCGCUGGCGCCGGCGGGGCAACAUUCCGAGGGGACCGUCCCCUCGGUAAUGGAGAAUGGGACCCA [U37G C75A]: the self-cleavage worked out at 0.156.
With GGCCGGCAUGGUCCCAGCCUCCUCGCUGGCGCCGGCUGGGCAACAUUGCGAGGGGACCGUCCCCUCGGUAAUGGCGAAUGAGACCCA [C48G G81A], the self-cleavage was determined as 0.489.
As for GGCCGGCAUGGUCCCAGCCUCUUCGCUGGCGCCGGCUGGGCAACAUUCCGAGUGGACCGUCCCCUCGGUAAUGGCGAAUGGGACCCA [C22U G53U], the figure is 0.61; as for GGCCGGCAUGGUCCCAGCCUCCUCGCUGGCGGCGCCUGGGCAACAUUCCGAGGGGACCGUCCCCUCGGUAAUGGCGAAUGGGACCCA [C32G G35C], 0.0386; as for GGCCGGCAGGGUCCCAGCCUCCUCGCUGGCGCCGGCUGGGCAACAUUCCGAGGGGACCGUCCCCUCGGUAAUGGCGAAUGGAACCCA [U9G G82A], 0.739.
With GGCCGGCAUGGUCCCAGCCUCCUCGCUGGCGCCGGCUGGGCAACAUUCCGAAGUGACCGUCCCCUCGGUAAUGGCGAAUGGGACCCA [G52A G54U], the self-cleavage stood at 0.815.
For GGCCGGCAUGGUCCCAGCCUCCUCGCGGGCGCCGGCUGUGCAACAUUCCGAGGGGACCGUCCCCUCGGUAAUGGCGAAUGGGACCCA [U27G G39U], the self-cleavage was determined as 0.222.
With GGCCGGCAUGGUCCCAGCCUCCUCGCUGGCGCCGGCUGGGCAACAUUCCGAGGGGACCGUCCCCUCGUUAAUGGCGAAUGGGAACCA [G68U C84A], the self-cleavage was found to be 0.816.
In the case of GGCCGGCAUGGUCCCAGCCUCCUCGCUGGCGCCGGCUGGGCAAGAUUCCAAGGGGACCGUCCCCUCGGUAAUGGCGAAUGGGACCCA [C44G G50A] it was 0.657.
Take GCCCGGCAUGGUCCCAGCCUCCUCGCAGGCGCCGGCUGGGCAACAUUCCGAGGGGACCGUCCCCUCGGUAAUGGCGAAUGGGACCCA [G2C U27A]: the self-cleavage amounted to 0.
In the case of GGCCGGCAUGGUCCCAGCCUCCUCGCUGGCGCCGGCUGGGCAACAUUCCGAGGGGACCGUCCCUUCGGUAAUGGCGUAUGGGACCCA [C64U A77U] it was 0.674.
